Test results taken from patent publication US20120090043A1, “TARGETS FOR RETROVIRUS ASSOCIATED DISEASES” (priority 2009, published 2012).

System: HTLV-1 LTR promoter transactivation by HTLV-1 Tax
Experiment: Transactivation assay, HTLV-1 LTR luciferase reporter with HTLV-1 Tax
Assay type: cell-based
Conditions: HEK293 cells co-transfected with pHTLV1LTR-Luc, HTLV-1 Tax and the human ORF; relative luciferase activity 24 h post-transfection; positive if >=2 or <=0.5 and p<0.05
Text: Twenty-four hours post-transfection, cells were washed three times with PBS, lysed and luciferase activities determined from two independent transfection experiments in triplicate. We computed a paired t-test to assess the difference of the means between samples with and without the human interactor. For a trial to be considered positive, the relative luciferase activities has to be >=2 or <=0.5, and the p-value of the t-test<0.05.
Expression vectors encoding human ORFs and HIV-1 Tat or HTLV-1 Tax proteins were tested in a transactivation reporter assay against reporter plasmids harboring HIV-1 or HTLV-1 viral promoter sequences cloned upstream of the luciferase reporter gene. […] Wherever not expressly specified, constructs used herein were generally made by sub-cloning entry clones from the ORFeome V3.1 into suitable destination vectors.

Molecule | HTLV_LTR transactiv.
DGCR6L: human host interactor protein, Gene ID 85359, expressed from transfected ORF vector (protein) MERYAAALEEVADGARQQERHYQLLSALQSLVKELPSSFQQRLSYTTLSDLALALLDGTVFEIVQGLLEIQHLTEKSLYNQRLRLQNEHRVLRQALRQKHQEAQQACRPHNLPVVQAAQQRELEAVEHRIREEQRAMDQKIILELDRKVADQQSTLEKAGVAGFYVTTNPQELMLQMNLLELIRKLQQRGCRAGNAALGLGGPWQSPAAQCDQKGSPVPP | 0.24 fold change
CCDC24: human host interactor protein, Gene ID 149473, expressed from transfected ORF vector (protein) MLRHSPSLWELVEEHVPLRERREVKRILGEAAVDLSLELRAEVAMLRALLQEARSSQAPSSRPISDPSSLLAPPPLLKDLLRQELRQLLQGLRHKAICEGRDQAQAWVQYSPRVLHFALEEPRCDLPEQEIFQMRGGGPSSGHRDLSIIKDQLNVSNIDQVARHLRGLLEEECHTLEREILILQRCLEEEYLRPCHPSEAALEPTLAELKEQKKAMEQELQASVGPSCVSPNHRQRPLGSSTQGLRPPLPLCGVAPLQCCLPAPPLEPYLRPRGQSATHRWGRQLQCSPREGPASTPMSSAAPQAPA | 2.88 fold change
FATE1: human host interactor protein, Gene ID 89885, expressed from transfected ORF vector (protein) MAGGPPNTKAEMEMSLAEELNHGRQGENQEHLVIAEMMELGSRSRGASQKKQKLEQKAAGSASAKRVWNMTATRPKKMGSQLPKPRMLRESGHGDAHLQEYAGNFQGIRFHYDRNPGTDAVAQTSLEEFNVLEMEVMRRQLYAVNRRLRALEEQGATWRHRETLIIAVLVSASIANLWLWMNQ | 0.49 fold change
DIPA: human host interactor protein, Gene ID 11007, expressed from transfected ORF vector (protein) MEAEAGGLEELTDEEMAALGKEELVRRLRREEAARLAALVQRGRLMQEVNRQLQGHLGEIRELKQLNRRLQAENRELRDLCCFLDSERQRGRRAARQWQLFGTQASRAVREDLGGCWQKLAELEGRQEELLRENLALKELCLALGEEWGPRGGPSGAGGSGAGPAPELALPPCGPRDLGDGSSSTGSVGSPDQLPLACSPDD | 0.28 fold change
DAZAP2: human host interactor protein, Gene ID 9802, expressed from transfected ORF vector (protein) MNSKGQYPTQPTYPVQPPGNPVYPQTLHLPQAPPYTDAPPAYSELYRPSFVHPGAATVPTMSAAFPGASLYLPMAQSVAVGPLGSTIPMAYYPVGPIYPPGSTVLVEGGYDAGARFGAGATAGNIPPPPPGCPPNAAQLAVMQGANVLVTQRKGNFFMGGSDGGYTIW | 3.31 fold change
FLJ10726: human host interactor protein, Gene ID 55216, expressed from transfected ORF vector (protein) MSRIPLGKVLLRNVIRHTDAHNKIQEESDMWKIRELEKQMEDAYRGTKRKMLPSSSSRMRSDGFDEESQRYYWRPKNEISGTLEDDFLKAKSWNKKFYDYEANMPDRWGHSGYKELYPEEFETDSDQQDITNGKKTSPQVKSSTHESRKHKKSKKSHKKKQKKRSHKKQKKSKKEATDITADSSSEFSEETGASGTRKGKQPHKRKKKSRKKSLKKPALFLEAESNTSHSDDSASSSSEESEERDTKKTKRKKREKKAHTSVANNEIQERTNKRTNWKVATDERSAESSEDD | 0.19 fold change
HSFY1: human host interactor protein, Gene ID 86614, expressed from transfected ORF vector (protein) MAHVSSETQDVSPKDELTASEASTRSPLCEHTFPGDSDLRSMIEEHAFQVLSQGSLLESPSYTVCVSEPDKDDDFLSLNFPRKLWKIVESDQFKSISWDENGTCIVINEELFKKEILETKAPYRIFQTDAIKSFVRQLNLYGFSKIQQNFQRSAFLATFLSEEKESSVLSKLKFYYNPNFKRGYPQLLVRVKRRIGVKNASPISTLFNEDFNKKHFRAGANMENHNSALAAEASEESLFSASKNLNMPLTRESSVRQIIANSSVPIRSGFPPPSPSTSVGPSEQIATDQHAILNQLTTIHMHSHSTYMQARGHIVNFITTTTSQYHIISPLQNGYFGLTVEPSAVPTRYPLVSVNEAPYRNMLPAGNPWLQMPTIADRSAAPHSRLALQPSPLDKYHPNYN | 0.43 fold change
DHRS10: human host interactor protein, Gene ID 51171, expressed from transfected ORF vector (protein) MATGTRYAGKVVVVTGGGRGIGAGIVRAFVNSGARVVICDKDESGGRALEQELPGAVFILCDVTQEDDVKTLVSETIRRFGRLDCVVNNAGHHPPPQRPEETSAQGFRQLLELNLLGTYTLTKLALPYLRKSQGNVINISSLVGAIGQAQAVPYVATKGAVTAMTKALALDESPYGVRVNCISPGNIWTPLWEELAALMPDPRATIREGMLAQPLGRMGQPAEVGAAAVFLASEANFCTGIELLVTGGAELGYGCKASRSTPVDAPDIPS | 0.41 fold change
C1orf94: human host interactor protein, Gene ID 84970, expressed from transfected ORF vector (protein) MRGGGGCVLALGGQRGFQKERRRMASGNGLPSSSALVAKGPCALGPFPRYIWIHQDTPQDSLDKTCHEIWKRVQGLPEASQPWTSMEQLSVPVVGTLRGNELSFQEEALELSSGKDEISLLVEQEFLSLTKEHSILVEESSGELEVPGSSPEGTRELAPCILAPPLVAGSNERPRASIIVGDKLLKQKVAMPVISSRQDCDSATSTVTDILCAAEVKSSKGTEDRGRILGDSNLQVSKLLSQFPLKSTETSKVPDNKNVLDKTRVTKDFLQDNLFSGPGPKEPTGLSPFLLLPPRPPPARPDKLPELPAQKRQLPVFAKICSKPKADPAVERHHLMEWSPGTKEPKKGQGSLFLSQWPQSQKDACGEEGCCDAVGTASLTLPPKKPTCPAEKNLLYEFLGATKNPSGQPRLRNKVEVDGPELKFNAPVTVADKNNPKYTGNVFTPHFPTAMTSATLNQPLWLNLNYPPPPVFTNHSTFLQYQGLYPQQAARMPYQQALHPQLGCYSQQVMPYNPQQMGQQIFRSSYTPLLSYIPFVQPNYPYPQRTPPKMSANPRDPPLMAGDGPQYLFPQGYGFGSTSGGPLMHSPYFSSSGNGINF | 0.41 fold change
FLJ22471: human host interactor protein, Gene ID 80212, expressed from transfected ORF vector (protein) MTSPHFSSYDEGPLDVSMAATNLENQLHSAQKNLLFLQREHASTLKGLHSEIRRLQQHCTDLTYELTVKSSEQTGDGTSKSSELKKRCEELEAQLKVKENENAELLKELEQKNAMITVLENTIKEREKKYLEELKAKSHKLTLLSSELEQRASTIAYLTSQLHAAKKKLMSSSGTSDASPSGSPVLASYKPAPPKDKLPETPRRRMKKSLSAPLHPEFEEVYRFGAESRKLLLREPVDAMPDPTPFLLARESAEVHLIKERPLVIPPIASDRSGEQHSPAREKPHKAHVGVAHRIHHATPPQAQPEVKTLAVDQVNGGKVVRKHSGTDRTV | 2.25 fold change
